Entries after “also recorded” stand apart in the source; their conditions may differ. Ends that are not written are not given here.
Columns and labels:
SF1 [1] = molecular target: T1, SF1 (Bos taurus, UniProt Q04752); assay: Yeast two-hybrid assay (HIS3 / β-galactosidase reporter); format: cell-based, bovine; parameters: The coding region for the wild type bovine SF1 was first subcloned into a yeast expression vector, pGBT9; expressed in transfected cells; host or cells: yeast (Y187, or Y187 x CG1945 diploids); conditions: no ligand
T1 sequence (Q04752 whole entry, the tested form may be a part): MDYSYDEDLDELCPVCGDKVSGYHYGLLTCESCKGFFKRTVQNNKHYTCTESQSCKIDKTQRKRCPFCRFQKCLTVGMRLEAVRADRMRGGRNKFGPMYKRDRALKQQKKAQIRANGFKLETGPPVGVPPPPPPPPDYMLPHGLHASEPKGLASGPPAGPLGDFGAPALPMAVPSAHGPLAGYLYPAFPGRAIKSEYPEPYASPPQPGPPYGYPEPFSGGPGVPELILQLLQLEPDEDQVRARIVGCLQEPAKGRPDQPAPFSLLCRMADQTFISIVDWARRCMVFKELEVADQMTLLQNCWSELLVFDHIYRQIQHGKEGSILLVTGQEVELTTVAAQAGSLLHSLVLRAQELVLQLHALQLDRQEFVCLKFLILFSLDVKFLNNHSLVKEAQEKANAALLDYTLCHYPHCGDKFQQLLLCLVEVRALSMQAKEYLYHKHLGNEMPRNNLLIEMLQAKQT
Protocol: (§1) The protein-protein interactions between the full-length PNRC or PNRC fragments and SF1, ERRα1, and several other nuclear receptors were analyzed by yeast two-hybrid assays. The yeast two-hybrid assay was used to test if PNRC also interacts with other members of the nuclear receptor superfamily. pGBT9-ERRα-1 yeast expression plasmid was prepared by inserting the PCR-amplified ERRA-1 coding region into pGBT9 through an EcoRI site. To construct the plasmid pGBT9-ER274-595, the coding sequence from amino acids 274 to 595 (LBD) of ERα was amplified by PCR with the sense primer 5′-[…]-3′ (SEQ ID NO:1) and antisense primer 5′-[…]-3′ (SEQ ID NO:2) and cloned into the EcoRI/,SalI site of the pGBT9 yeast expression plasmid. pSG5-GRIP1 and several yeast expression plasmids coding for fusion proteins of Gal4-DBD and HBDs of AR, GR, PR, TR, RAR, and RXR in pGBT9 vector were kindly provided by Dr. Michael R. Stallcup (University of Southern California, Los Angeles, Calif.) (Voegel et al., 1996; Hong et al., 1996; Ding et al., 1998). The yeast mating approach was used in yeast two-hybrid assays to study protein-protein interactions as described in Clontech's protocol. Briefly, pGBT9 (DNA-BD vector only), pGBT9/target plasnmids for SF1, ERRα1, and other HBDs of nuclear receptors, and DNA-BD/control plasmids (as negative control) were introduced into the reporter strain Y187, and the AD vector alone or wild type PNRC and its deleted fragments-containing pACT2 derivatives were used to transform yeast strain CG1945. The yeast mating was performed by picking one colony from each type and growing both colonies in liquid YPD medium with or without a proper ligand at the following concentrations: 100 nM of estradiol for ER; 10 μM of deoxycorticosterone for GR; 100 nM of dihydrotestosterone for AR; 500 nM of progesterone for PR; 10 μM of T3 for TR; 10 μM of all-trans-retinoic acid for RAR; and 10 μM of 9-cis-retinoic acid for RXR. The same amount of an aliquot of the mating culture was spread on both SD/-Leu/-Trp plates to select diploid strains bearing both plasmids and SD/-Leu/-Trp/-His/+3-AT plates to score the growth of the diploid cells that express the two interacting target proteins. The His3 positive colonies were further analyzed for β-galactosidase activity by liquid β-galactosidase activity measurement as essentially described in the protocol.
(§2) Yeast strains Y187 expressing the Gal4DB fusion to the nuclear receptors and CG1945expressing Gal4AD alone or Gal4AD-PNRC fusion protein were mated by co-culturing, and selected for the presence of both two-hybrid plasmids. The expression of interacting hybrid proteins in yeast diploids was analyzed to determine if there was induction of HIS3 expression as shown in FIG. 1A and LacZ expression as shown in FIGS. 1B and 1C. […] As shown in FIGS. 1A-C, PNRC also interacted specifically with all seven nuclear receptor HBDs, including ER, AR, GR, TR, PR, RAR and RXR, and these interactions were completely ligand-dependent. […] However, no interactions occurred either between PNRC and an irrelevant protein such as human lamin C protein or between nuclear receptors and Gal4activation domain alone.

SF1 [2] = molecular target: T1, SF1; assay: GST pull-down binding assay; parameters: The coding region for the wild type bovine SF1 was first subcloned into a yeast expression vector, pGBT9; expressed in transfected cells; host or cells: yeast (Y187, or Y187 x CG1945 diploids); species or system bovine; conditions: GST fusion on glutathione Sepharose beads, 2 hour at 4° C.
Protocol: To further confirm the interaction between PNRC and SF1 which was detected in both the yeast and the mammalian two-hybrid assays, a GST pull-down binding assay was performed to study the direct binding between PNRC and SF1 in vitro. The PNRC cDNA fragments were generated by PCR and inserted into E. coli expression vector pGEX2TK (Pharnacia) through a BamHI site to express GST-PNRC wild type and deletion mutants fusion proteins. Wild type bovine SF1 cDNA in pSG5 vector was translated in vitro in the presence of [^35S]methionine using the TNT Coupled Reticulocyte Lysate System (Promega, Madison, Wis.). GST and deleted PNRC fusion proteins, GST-PNRC270-327 and GST-PNRC278-300, were prepared using the affinity matrix Glutathione Sepharose 4B (Pharmacia) according to the supplier's instructions. The washed beads containing about 10 μg GST fusion protein were incubated for 2 hour at 4° C. with 4 μl in vitro translated, [^35S]methionine-labeled SF1 in a total volume of 150 μl incubation buffer (50 mM Kpi, pH 7.4, 100 mM NaCl, 1 mM MgCl2, 10% glycerol, 0.1% Tween 20, 1.5% BSA) (Treuter et al., 1998). […]
PNRC fragments, including PNRC270-327 and PNRC278-300 were expressed as fusion proteins with glutathione S-transferase (GST) in E. coli BL21, purified with glutathione Sepharose 4B beads, and tested for their ability to bind in vitro translated [^35S]methionine-labeled SF1 in pull-down assays.

RXR HBD = assay: Yeast two-hybrid assay (HIS3 / β-galactosidase reporter); format: cell-based; conditions: 10 μM of 9-cis-retinoic acid
Protocol: as §1, §2

RAR HBD = assay: as above; format: cell-based; conditions: 10 μM of all-trans-retinoic acid
Protocol: as §1, §2

TR HBD = assay: as above; format: cell-based; conditions: 10 μM of T3
Protocol: as §1, §2

PR HBD = assay: as above; format: cell-based; conditions: 500 nM of progesterone
Sequence of PR HBD (P06401 679-933 limits assumed): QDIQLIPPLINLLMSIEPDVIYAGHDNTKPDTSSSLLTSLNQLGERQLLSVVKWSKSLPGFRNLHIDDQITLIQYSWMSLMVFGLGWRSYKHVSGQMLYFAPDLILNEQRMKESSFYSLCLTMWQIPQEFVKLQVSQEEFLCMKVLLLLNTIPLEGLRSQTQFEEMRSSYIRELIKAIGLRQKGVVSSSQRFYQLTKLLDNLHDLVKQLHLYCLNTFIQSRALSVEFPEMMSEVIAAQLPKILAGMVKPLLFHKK
Protocol: as §1, §2

SF1 [3] = molecular target: T1, SF1; assay: Mammalian two-hybrid assay in SK-BR-3 cells (CAT reporter); format: cell-based, bovine; parameters: expressed in transfected cells; host or cells: SK-BR-3
Protocol: The Mammalian MatchMaker two-hybrid assay system (Clontech) was used to confirm the interaction between PNRC and SF1 that was identified in the yeast assays. Because the assays are performed in mammalian cells, proteins are more likely to be in their native conformations, and the results are therefore more likely to represent biologically significant interactions. SK-BR-3 breast cancer cells were cotransfected with three expression plasmids, including pM-SF1 for Gal4 DNA-DB/SF1 fusion protein, pVP16-PNRC for VP16AD-PNRC fusion protein, and a third vector, pG5CAT, to provide the Gal4 DNA-binding site, a promoter, and the CAT reporter gene.
A set of plasmids, named pM-SF1, pVP16-PNRC, pVP16-PNRC270-327, and pVP16-PNRC278-300, for mammalian two-hybrid assays were prepared as follows: SF1 cDNA fragment was excised from pGBT9-SF1 and inserted in frame into Gal4 DNA-binding domain vector pM (Clontech) through an EcoRI site. PCR was used to generate PNRC full length coding region as well as the above mentioned deleted fragments with BclI at both ends. The PCR products were digested with BclI and inserted in proper reading frame into a pVP16 activation domain vector (Clontech) at a BamHI site. Mammalian two-hybrid assays in SK-BR-3 cells were performed according to the procedures described in the Clontech protocol (PT3002-1).

[4] = molecular target: T2, Gal4AD-PNRC fusion protein (full-length proline-rich nuclear receptor co-regulatory protein) (human, UniProt Q12796 1-327); assay: yeast two-hybrid (HIS3 and LacZ reporters)
T2 construct: Yeast two-hybrid prey; also called wild type PNRC in pACT2; B4-2
T2 sequence (Q12796 whole entry, the tested form may be a part): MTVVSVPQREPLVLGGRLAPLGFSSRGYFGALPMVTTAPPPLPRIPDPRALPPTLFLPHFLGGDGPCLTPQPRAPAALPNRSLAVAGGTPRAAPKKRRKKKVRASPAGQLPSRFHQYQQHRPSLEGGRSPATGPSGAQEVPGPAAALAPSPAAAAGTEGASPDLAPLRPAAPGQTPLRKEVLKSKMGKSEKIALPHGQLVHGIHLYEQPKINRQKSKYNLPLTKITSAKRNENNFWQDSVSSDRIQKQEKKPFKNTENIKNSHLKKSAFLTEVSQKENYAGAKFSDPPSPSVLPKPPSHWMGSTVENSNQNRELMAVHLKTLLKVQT

[5] = molecular target: T3, Gal4DBD-SF1 fusion protein (bovine steroidogenic factor 1, pGBT9-SF1) (bovine, UniProt P04386 1-147; Q04752 1-461); assay: yeast two-hybrid (HIS3 and LacZ reporters)
T3 construct: Yeast two-hybrid bait; whole wild type coding region; also called DBDGal4-SF1

[6] = molecular target: T4, Gal4DBD fusion of ERα ligand-binding domain, amino acids 274 to 595 (pGBT9-ER274-595) (UniProt P04386 1-147; P03372 274-595); assay: yeast two-hybrid (HIS3 and LacZ reporters)
T4 construct: Tested with 100 nM estradiol; also called ER HBD

[7] = molecular target: Gal4DBD-ERRα1 fusion protein (estrogen related receptor α-1, pGBT9-ERRα-1) (UniProt P04386 1-147; P11474 1-423); assay: yeast two-hybrid (HIS3 and LacZ reporters)
[8] = molecular target: T5, Gal4 DNA-DB/SF1 fusion protein (pM-SF1) (bovine, UniProt P04386 1-147; Q04752 1-461); assay: mammalian two-hybrid, CAT reporter, SK-BR-3 cells
T5 construct: Mammalian two-hybrid construct, expressed in SK-BR-3 cells

NR box: NR box-like sequence LKTLL (aa 319-323; SEQ ID NO:4) of PNRC as fusion protein with Gal4 AD (not fully specified; UniProt Q12796 319-323, looked up, fragment)
interaction with SF1 (SF1 [1]): No interaction was observed

PNRC/270-317: PNRC fragment aa 270-317 lacking the NR box, Gal4 AD fusion protein
interaction with SF1 (SF1 [1]): about the same

PNRC301-327: PNRC fragment aa 301-327 containing the NR box, Gal4AD fusion protein
interaction with SF1 (SF1 [1]): could not interact with SF1

PNRC/270-327: C-terminal PNRC fragment aa 270-327, expressed as Gal4AD, VP16 or GST fusion protein
binding of in vitro translated 35S-labeled SF1 (SF1 [2]): found to bind SF1 | interaction with SF1 (SF1 [1]): about the same; also recorded: stronger than the interaction between PNRC/278-300 and SF1

PNRC278-300 (mutant): PNRC278-300 carrying double mutations P287A and P290A (S-D-A-P-S-A-S, SEQ ID NO:6) (SDAPSAS; MUTAGEN (3) This residue has been changed from a proline.; listed as Homo sapiens)
interaction with SF1 (SF1 [1]): almost completely abolished the interactions | interaction with RXR (RXR HBD): almost completely abolished the interactions | interaction with RAR (RAR HBD): almost completely abolished the interactions | interaction with TR (TR HBD): almost completely abolished the interactions | interaction with PR (PR HBD): almost completely abolished the interactions

PNRC278-300: 23-amino acid PNRC region aa 278-300 (SEQ ID NO:9), expressed as Gal4AD, VP16 or GST fusion protein (NYAGAKFSDPPSPSVLPKPPSHW; listed as Homo sapiens)
binding of in vitro translated 35S-labeled SF1 (SF1 [2]): found to bind SF1 | interaction with SF1 in mammalian two-hybrid assay (SF1 [3]): retain most of the interaction of full length PNRC to SF1 | interaction with SF1 (SF1 [1]): able to interact with SF1

B1: human lamin C protein (irrelevant protein, DNA-BD/control plasmid) (other, UniProt P04386 1-147, looked up)
chain: MKLLSSIEQACDICRLKKLKCSKEKPKCAKCLKNNWECRYSPKTKRSPLTRAHLTEVESRLERLEQLFLLIFPREDLDMILKMDSLQDIKALLTGLFVQDNVNKDAVTDRLASVETDMPLTLRQHRISATSSSEESSNKGQRQLTVSSEEVVSREVSGIKAAYEAELGDARKTLDSVAKERARLQLELSKVREEFKELKARNTKKEGDLIAAQARLKDLEALLNSKEAALSTALSEKRTLEGELHDLRGQVAKLEAALGEAKKQLQDEMLRRVDAENRLQTMKEELDFQKNIYSEELRETKRRHETRLVEID
notes: that lamin C is the DNA-BD control fusion is inferred from these two statements
binding result [4]: no binding

B2: Gal4 activation domain alone (other, UniProt P04386 768-881, looked up)
chain: ANFNQSGNIADSSLSFTFTNSSNGPNLITTQTNSQALSQPIASSNVHDNFMNNEITASKIDDGNNSKPLSPGWTDQTAYNAFGITTGMFNTTTMDDVYNYLFDDEDTPPNPKKE
notes: Control of the yeast two-hybrid assays; also called Gal4AD; AD vector alone
binding result [5]: no binding | binding result [6]: no binding | binding result [7]: no binding

B3: VP16 activation domain alone (other)
chain: STAPPTDVSLGDELHLDGEDVAMAHADALDDFDLDMLGDGDSPGP
notes: Control of the mammalian two-hybrid assay; also called VP16 AD
binding result [8]: no binding
